# Test results reported in article PMC4049585, “Identification and Characterization of a Ginsenoside-Transforming β-Glucosidase from Pseudonocardia sp. Gsoil 1536 and Its Application for Enhanced Production of Minor Ginsenoside Rg2(S)” (PLoS ONE, 2014).
# Legend:
# [1] = test system: T1, O=[N+]([O-])c1ccc(O[C@@H]2O[C@H](CO)[C@@H](O)[C@H](O)[C@H]2O)cc1; assay: purified protein; format: biochemical, Pseudonocardia sp. Gsoil 1536; conditions: pNPG 1-20 mM, standard assay 50 mM sodium phosphate pH 7.0, 37°C
# T1 construct: 743 residues, 78,975 Da predicted; GST fusion (pGEX 4T-1) from E. coli BL21(DE3), 105 kDa with GST; forward primer encodes IDPVDLTL after GS
# [2] = test system: T2, CC(C)=CCC[C@](C)(O[C@@H]1O[C@H](CO)[C@@H](O)[C@H](O)[C@H]1O)[C@H]1CC[C@]2(C)[C@@H]1[C@H](O)C[C@@H]1[C@@]3(C)CC[C@H](O)C(C)(C)[C@@H]3[C@@H](O[C@@H]3O[C@H](CO)[C@@H](O)[C@H](O)[C@H]3O[C@@H]3O[C@@H](C)[C@H](O)[C@@H](O)[C@H]3O)C[C@]12C; assay: initial velocity, Re conversion, Cleland kinetics program; format: biochemical, Pseudonocardia sp. Gsoil 1536; conditions: Re 0.2-5.0 mM; Re substrate lot purity 87.6%; temperature and buffer of kinetics not given
# T2 construct: 743 residues, 78,975 Da predicted; GST fusion (pGEX 4T-1) from E. coli BL21(DE3), 105 kDa with GST; forward primer encodes IDPVDLTL after GS
# From the text: initial velocity, Re conversion, Cleland kinetics program on BglPC28
substance,measurement,setting,value
BglPC28 (Pseudonocardia sp. Gsoil1536),Km,[1],6.36 ± 1.10 mM
same,Vmax,[1],40 µmol/min/mg
same,kcat,[1],52.7 ± 3.4 s⁻¹
same,kcat/Km,[1],8630 ± 2020 M⁻¹ s⁻¹
same,Km,[2],1.42 ± 0.13 mM
same,Vmax,[2],5.62 µmol/min/mg
same,kcat,[2],7.4 ± 0.28 s⁻¹
same,kcat/Km,[2],5280 ± 690 M⁻¹ s⁻¹
